Numbering of substitutions follows the chain as printed.
B1: hBCMA-A6 (VHH)
VHH: QVQLVESGGGLVQPGGSLRLSCVASGSIFDAYNMGWYRQAPGKQRELVAAISSAGTTFYRDSVKGRFTVSRNNAKNTMYLQMDRLRPEDTAVYDCNGAPWGDAPVKVEDWGQGTQVTVSS
modifications: single biotin on the C-terminal AviTag
notes: also called VHH-A6; not shown: C-terminal His tag and AviTag biotinylation signal from pMRO vector
B2: hBCMA-H4 (VHH)
VHH: QVQLVESGGGLVQPGGSLRLSCAASGDSFGAYAMGWYRQAPGKQRELVAAISSAGNTFYRDSVKGRFTVSRNNAKNAMYLQMDRLKPEDTAVYQCNGAPWADEPVKVWNWGLGTQVTVSS
modifications: single biotin on the C-terminal AviTag
notes: also called VHH-H4; not shown: C-terminal His tag and AviTag biotinylation signal from pMRO vector
B3: hBCMA-VcMRo3 (V3) (VHH)
VHH: EVQLEQSGGGLVQTGDSLRLTCTIPGRASNHFVMAWFRRAPGKEREFVATRVWSGGSPYYSDSVKGRFAIAIDNAKNTAYLQMNSLKPEDTAVYYCAATKDIMSRSYDYWGLGTQVTVSS
modifications: single biotin on the C-terminal AviTag
notes: also called hBCMA-V3; not shown: C-terminal His tag and AviTag biotinylation signal from pMRO vector
B4: hBCMA-E7 (VHH)
VHH: B3 VHH with E1Q, E5V, Q6E, T21A, P25S, S29T, N30D, F47Y, S61L, S85N
modifications: single biotin on the C-terminal AviTag
notes: Llama VHH made in E. coli BL21(DE3), IMAC purified, monomeric SEC fraction used; also called VHH-E7; VHH # 1-B1; not shown: C-terminal His tag and AviTag biotinylation signal from pMRO vector
B5: hBCMA-VcMRo8(VF7/VF8) (VHH)
VHH: QVQLVESGGGLVQPGGSLRLSCAASGTIFSRNALAWFRQAPGKQRELVAHITIGGTTVYKDSVKGRFTISRDNAKNTVYLQMDALKPEDTAVYYCNADPEGSWNWVRRGDYWGQGTQVTVS
modifications: single biotin on the C-terminal AviTag
notes: also called V8; hBCMA-V8; not shown: C-terminal His tag and AviTag biotinylation signal from pMRO vector
B6: hBCMA-H2 (VHH)
VHH: QVKAEESGGGLVRPGDSLRLTCTISGRTSNNFVMAWFRRTPGKEREYVATRVWSGSTPYYHDSVKGRFTISIDDDKNTAYLQMNSLKPEDTAVYYCAATKDIMSRSYDYWGLGTQVTVSS
modifications: single biotin on the C-terminal AviTag
notes: also called VHH-H2; not shown: C-terminal His tag and AviTag biotinylation signal from pMRO vector

target: T1, hBCMA-ECD-FC5VHH (human, UniProt Q02223 1-54, biotinylated in vivo ; biotinylated in vivo on the tag of the carrier part, which is not in the letters); experiment: SPR (Biacore T200), VHH 20-500 nM over BCMA-ECD surface, 25 C
T1 construct: Made in HEK-293 cells, monomeric SEC fraction; The methods say about 500 RU captured on an SA chip; the results say immobilised on a CM5 chip; also called hBCMA-FC5; human BCMA-ECD; not shown: FC5 VHH carrier, any linker, and the His and biotinylation tags
T1 sequence: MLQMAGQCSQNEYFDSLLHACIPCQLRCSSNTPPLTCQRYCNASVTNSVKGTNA
Experimental: For surface Plasmon resonance, 15 selected VHHs were passed though size exclusion columns, Superdex 75 (GE Healthcare), respectively, in 10 mM HEPES, pH 7.4, containing 150 mM NaCl, 3 mM EDTA, monomeric sdAb fractions were collected and protein concentrations were determined by measuring absorbance at 280 nm (A280). Analysis were performed with Biacore T200 instrument (GE Healthcare). All measurements were carried out at 25° C. in 10 mM HEPES, pH 7.4, containing 150 mM NaCl, 3 mM EDTA and 0.005% surfactant P20 (GE Healthcare). Approximately 500 RUs of the recombinant monomeric BCMA-ECD (obtained after SEC purification of the BCMA-ECD-FC5VHH) were captured on SA sensor chip (GE Healthcare) at a flow rate of 5 uL/min. Various concentration of the monomeric VHHs (20-500 nM) were injected over BCMA-ECD surface, respectively using an SA surface as a reference at a flow rate of 40 μL/min. Surfaces were generated by washing with running buffer. Data were analysed with BIAevaluation 4.1 software.
The monomeric fraction of all 15 VHHs were used for SPR experiment where the human BCMA-ECD or mouse BCMA was immobilized onto the CM5 dextran chip and various VHH concentration (20-500 nM) were passed over the sensor chip.

Binder	Kd [pM]	koff [s⁻¹]	kon [M⁻¹ s⁻¹]
B1	4620	0.0109	2.36e+06
B2	379	0.000509	1.34e+06
B3	564	0.000239	424000
B4	46.2	0.000179	3.88e+06
B5	84.6	0.00125	1.48e+07
B6	80.1	0.000343	4.28e+06

target: T2, full-length hBCMA-ECD displayed on yeast (Aga2-HA-(hBCMA)-MYC) (human, UniProt Q02223 1-54); experiment: yeast cell ELISA, sample BCMA_B1x Met1_Ala54
T2 construct: range 1-54; stands here as the molecule on which the mapped regions are counted; also called hBCMA ecto-domain (ECD); not shown: Aga2-HA N-terminal fusion partner of the pPNL6 yeast display vector; C-terminal MYC tag
T2 sequence (looked up): T1 sequence
Experimental: (§1) The YSD vector (pPNL6) was from The Pacific Northwest National Laboratory, USA. […] The HRP activity was assayed with substrate TMB (tetramethyl benzidine) according to the manufacture's conditions and read at OD₄₅₀.
(§2) The assays were performed as described in the Materials and Method, and OD₄₅₀ was measured. Note that OD₄₅₀ reads equal or less than 0.100 were scored as zero for clarity.

Binder	OD450
B1	1.88
B2	2.78
B3	3.09
B4	2.52
B5	2.45
B6	2.12

Target: T3, BCMA_B18x Ile22_Tyr40 (C37S) (human, UniProt Q02223)
T3 construct: limits and substitution as printed in the sample name
T3 yeast-displayed fusion (looked up): IPCQLRCSSNTPPLTSQRY
Experiment: yeast cell ELISA, sample BCMA_B18x Ile22_Tyr40 (C37S)
Experimental: as §1, §2

Binder	binding result
B1	no binding
B2	no binding
B3	no binding
B4	no binding
B5	no binding
B6	no binding

Target: T4, BCMA_B19x Arg27_Ala43 (human, UniProt Q02223)
T4 construct: limits given in the sample name
T4 yeast-displayed fusion (looked up): RCSSNTPPLTCQRYCNA
Experiment: yeast cell ELISA, sample BCMA_B19x Arg27_Ala43
Experimental: as §1, §2

Binder	binding result
B1	no binding
B2	no binding
B3	no binding
B4	no binding
B5	no binding
B6	no binding

Target: T5, BCMA_B16x Ile22_Ala43 (C41S) (human, UniProt Q02223)
T5 construct: limits and substitution as printed in the sample name
T5 yeast-displayed fusion (looked up): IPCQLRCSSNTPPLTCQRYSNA
Experiment: yeast cell ELISA, sample BCMA_B16x Ile22_Ala43 (C41S)
Experimental: as §1, §2

Binder	binding result
B1	no binding
B2	no binding
B3	no binding
B4	no binding
B5	no binding
B6	no binding

Target: T6, BCMA_B7x Met1_Tyr40 (human, UniProt Q02223)
T6 construct: limits given in the sample name
T6 yeast-displayed fusion (looked up): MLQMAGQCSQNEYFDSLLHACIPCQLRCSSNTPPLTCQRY
Experiment: yeast cell ELISA, sample BCMA_B7x Met1_Tyr40
Experimental: as §1, §2

Binder	OD450
B1	1.84
B2	1.39
B3	1.62
B4	2.64
B5	2.37
B6	3.02

Target: T7, BCMA_B5x Gln38_Ala54 (human, UniProt Q02223)
T7 construct: limits given in the sample name
T7 yeast-displayed fusion (looked up): QRYCNASVTNSVKGTNA
Experiment: yeast cell ELISA, sample BCMA_B5x Gln38_Ala54
Experimental: as §1, §2

Binder	binding result
B1	no binding
B2	no binding
B3	no binding
B4	no binding
B5	no binding
B6	no binding

Target: T8, BCMA_B14x Gly6_Pro23 (C21S) (human, UniProt Q02223)
T8 construct: limits and substitution as printed in the sample name
T8 yeast-displayed fusion (looked up): GQCSQNEYFDSLLHASIP
Experiment: yeast cell ELISA, sample BCMA_B14x Gly6_Pro23 (C21S)
Experimental: as §1, §2

Binder	binding result
B1	no binding
B2	no binding
B3	no binding
B4	no binding
B5	no binding
B6	no binding

Target: T9, BCMA_B17x Ile22_Tyr40 (human, UniProt Q02223)
T9 construct: limits given in the sample name
T9 yeast-displayed fusion (looked up): IPCQLRCSSNTPPLTCQRY
Experiment: yeast cell ELISA, sample BCMA_B17x Ile22_Tyr40
Experimental: as §1, §2

Binder	binding result
B1	no binding
B2	no binding
B3	no binding
B4	no binding
B5	no binding
B6	no binding

Target: T10, BCMA_B22x Arg27_Tyr40 (C37S) (human, UniProt Q02223)
T10 construct: limits and substitution as printed in the sample name
T10 yeast-displayed fusion (looked up): RCSSNTPPLTSQRY
Experiment: yeast cell ELISA, sample BCMA_B22x Arg27_Tyr40 (C37S)
Experimental: as §1, §2

Binder	binding result
B1	no binding
B2	no binding
B3	no binding
B4	no binding
B5	no binding
B6	no binding

Target: T11, BCMA_B10x Gly6_Ala43 (human, UniProt Q02223)
T11 construct: limits given in the sample name
T11 yeast-displayed fusion (looked up): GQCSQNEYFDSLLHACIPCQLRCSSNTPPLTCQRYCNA
Experiment: yeast cell ELISA, sample BCMA_B10x Gly6_Ala43
Experimental: as §1, §2

Binder	OD450
B1	1.66
B2	2.23
B3	2.69
B4	1.8
B5	2.32
B6	2.6

Target: T12, BCMA_B20x Arg27_Ala43 (C41S) (human, UniProt Q02223)
T12 construct: limits and substitution as printed in the sample name
T12 yeast-displayed fusion (looked up): RCSSNTPPLTCQRYSNA
Experiment: yeast cell ELISA, sample BCMA_B20x Arg27_Ala43 (C41S)
Experimental: as §1, §2

Binder	binding result
B1	no binding
B2	no binding
B3	no binding
B4	no binding
B5	no binding
B6	no binding

Target: T13, BCMA_B3x Ile22_Ala54 (human, UniProt Q02223)
T13 construct: limits given in the sample name
T13 yeast-displayed fusion (looked up): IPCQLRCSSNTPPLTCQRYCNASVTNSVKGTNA
Experiment: yeast cell ELISA, sample BCMA_B3x Ile22_Ala54
Experimental: as §1, §2

Binder	binding result
B1	no binding
B2	no binding
B3	no binding
B4	no binding
B5	no binding
B6	no binding

Target: T14, BCMA_B2x Gly6_Ala54 (human, UniProt Q02223)
T14 construct: limits given in the sample name
T14 yeast-displayed fusion (looked up): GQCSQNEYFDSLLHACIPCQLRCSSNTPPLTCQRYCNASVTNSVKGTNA
Experiment: yeast cell ELISA, sample BCMA_B2x Gly6_Ala54
Experimental: as §1, §2

Binder	OD450
B1	3.08
B2	2.16
B3	2.53
B4	2.92
B5	2.74
B6	2.92

Target: T15, BCMA_B4x Arg27_Ala54 (human, UniProt Q02223)
T15 construct: limits given in the sample name
T15 yeast-displayed fusion (looked up): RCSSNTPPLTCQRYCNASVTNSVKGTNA
Experiment: yeast cell ELISA, sample BCMA_B4x Arg27_Ala54
Experimental: as §1, §2

Binder	binding result
B1	no binding
B2	no binding
B3	no binding
B4	no binding
B5	no binding
B6	no binding

Source: patent US20250000976A1 (NATIONAL RESEARCH COUNCIL OF CANADA, published 2025)
